Results as given in patent US9328143B2, “Peptide derivatives and use thereof as carriers for molecules in the form of conjugates” (VECT-HORUS, priority 2008, dated 2016).
Where no end group is shown, it is not given here. [ ]: non-standard residue; d: D form. Rhodamine = not defined here

Tests used:
[1] = In situ brain perfusion in mouse, transport across the BBB; assay type: in vivo
Description: The in situ brain perfusion technique (in adult male OF1 mouse) is used here to select the best vectors and to provide proof of their mechanism of action for their passage in the brain across the BBB.
Radioactive peptides with high specific radioactivity (SRA, up to 100 Ci/mmol) are prepared by a strategy of acylation of the N-term amine function by tritiated propionic (or propanoic) anhydride or tritiated N-propionyl-succinimide (NPS).
The tritiation reaction of peptide vectors SEQ ID NO: 11 and SEQ ID NO: 48 in the N-term position by propionylation is carried out in DMF (1 mg peptide in 100 μl to 450 μl according to solubility) by adding 0.1 equivalent of tritiated NPS for 5 min at room temperature, then 0.9 equivalent of cold NPS (non-tritiated) for 1 h, and then a new equivalent of cold NPS for 5 h. The reaction medium is then left at 4° C. overnight and purified the following day by HPLC. The SRA for each tritiated peptide is between 5 Ci/mmol and 10 Ci/mmol (theoretically on the order of 7.7 Ci/mmol). The total quantity of radioactivity prepared by synthesis is between 600 μCi and 950 μCi.
The techniques briefly summarised below were developed to study the distribution in the brain of active substances and, in particular, the role of the BBB and, more particularly, of LDLR in the penetration of these molecules in the brain. In situ brain perfusion techniques are among the most technically demanding and the most difficult to perform in the mouse. However, in situ brain perfusion (like in vitro models) enables total control of the composition of the artificial perfusate in order to maintain the cells and vascularisation of the brain under normal physiological and anatomical conditions within the animal, without the disrupting factor of systemic distribution.
(§1) This strategy of in situ brain perfusion normally carried out in the rat was adapted for mouse (Dagenais et al., 2000, J Cereb Blood Flow Metab., 20(2), 381-6) in order to broaden its application for evaluating the parameters of transport kinetics at the BBB and the blood-retinal barrier, in transgenic and KO mutant mice for the receptors, enzymes or transporters of active substances. It involves catheterisation of a carotid artery in anaesthetised OF 1 mice and ligature of some branches of this carotid artery (external, thyroidal, occipital) in order to specifically perfuse the internal carotid and pterygopalatine arteries, which are used to evaluate the uptake in the brain of the vectors and conjugates. The catheter makes it possible to replace general circulation by infusion with a well-controlled perfusate (bicarbonate buffer, plasma or blood) by passing by the carotid. Oxygenated Krebs bicarbonate buffer is first used to evaluate the capacities of the vectors and conjugates to gain access to the brain. After catheterisation of the carotid, endogenous blood flow is stopped by sectioning the ventricles of the heart in order to avoid the mixture of buffer with blood and elevation in blood pressure. The duration of the fixed flow-rate perfusion is monitored. The buffer perfusion can be extended up to 20 min, or up to 1 h in the presence of oxygen transporters (washed erythrocytes) for studies of receptor-mediated transport (RMT).
The study of peptide vector SEQ ID NO: 11 made it possible to determine its brain transport or transfer coefficient (Kin). The duration of brain perfusion for these experiments is 5 min with a perfusate flow rate of 2 ml/min. Thus, the calculation of the Kin (volume of distribution over time of brain perfusion) of peptide vector SEQ ID NO: 11 gives a value of 3.5±0.2×10^−4 ml/s/g.

[2] = In situ perfusion in mouse, transport across the blood-retinal barrier; assay type: in vivo
From the text: as §1
In addition, the Kin of these various peptides, across the blood-retinal barrier (BRB), were also determined. Kin of SEQ ID NO: 11=1.2±0.2×10^−4 ml/s/g Kin of SEQ ID NO: 48=2.4±0.3×10^−4 ml/s/g Kin of SEQ ID NO: 73=0.0±0.0×10^−4 ml/s/g Kin of SEQ ID NO: 72=11.5±3.3×10^−4 ml/s/g Kin of SEQ ID NO: 74=1.8±0.2×10^−4 ml/s/g

hLDLR [3] = target: T1, hLDLR (Homo sapiens, UniProt P01130); assay: Displacement of SEQ ID NO: 11/S-Tag on CHO-hLDLR-RFP cells (FRET); assay type: binding; set-up: expressed in transfected cells; details: 10 μM peptide vs 10 μM SEQ ID NO: 11/S-Tag
T1 sequence (P01130 22-860): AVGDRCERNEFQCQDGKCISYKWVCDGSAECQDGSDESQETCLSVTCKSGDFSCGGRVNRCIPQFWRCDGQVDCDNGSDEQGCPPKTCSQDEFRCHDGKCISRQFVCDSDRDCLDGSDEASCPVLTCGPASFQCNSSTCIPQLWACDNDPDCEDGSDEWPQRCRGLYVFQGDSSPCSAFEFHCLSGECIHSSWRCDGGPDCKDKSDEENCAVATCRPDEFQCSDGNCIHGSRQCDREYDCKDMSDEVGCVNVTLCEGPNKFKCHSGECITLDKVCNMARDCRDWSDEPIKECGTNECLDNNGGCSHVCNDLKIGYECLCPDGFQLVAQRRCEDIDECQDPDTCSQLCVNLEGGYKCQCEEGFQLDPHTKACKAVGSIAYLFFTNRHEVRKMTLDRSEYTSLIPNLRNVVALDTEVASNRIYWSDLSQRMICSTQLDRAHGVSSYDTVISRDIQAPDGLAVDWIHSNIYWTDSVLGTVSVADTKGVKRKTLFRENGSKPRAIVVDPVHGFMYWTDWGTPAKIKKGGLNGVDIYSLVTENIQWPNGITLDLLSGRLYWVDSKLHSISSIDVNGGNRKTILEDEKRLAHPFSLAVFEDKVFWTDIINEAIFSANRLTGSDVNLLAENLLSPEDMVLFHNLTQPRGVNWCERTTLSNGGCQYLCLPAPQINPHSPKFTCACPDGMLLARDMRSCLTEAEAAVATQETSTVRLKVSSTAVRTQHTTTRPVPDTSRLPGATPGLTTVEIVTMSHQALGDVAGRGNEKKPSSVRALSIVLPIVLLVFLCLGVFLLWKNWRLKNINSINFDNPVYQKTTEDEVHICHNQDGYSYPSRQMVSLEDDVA
Description: For the FRET approaches, cells are washed twice with 2 ml PBS and then incubated for 1 h at 37° C. with 250 μl peptide solution. They are again washed twice with 2 ml PBS and then twice with 1 ml PBS, and then scraped in 1 ml PBS and centrifuged for 5 min at 1,250 rpm. The supernatant is then aspirated and the cell pellet is lysed in 80 μl PBS+0.1% Triton X100. Twenty μl of each cell lysate are analysed by measuring fluorescence emission after the FRET reaction.
A study of the structure/activity (affinity) relationships was carried out on peptide vector SEQ ID NO: 11 via the alanine scanning (Ala-scan) technique and by N- and C-term truncation in order to determine the importance of each of the 15 constitutive amino acids of this peptide. […] Briefly, the CHO-hLDLR-RFP cells used are adherent and at confluence.
They are grown in six-well plates. Three wells of cells are used per condition.
A solution containing 10 μM peptide SEQ ID NO: 11/S-Tag is prepared in HamF12-1% BSA culture medium. To this solution is added 10 μM peptide resulting from the Ala-scan to be evaluated (competition). […]

[4] = test system: bovine brain microvascular endothelial cells (BBMEC); assay: Binding and/or internalisation in endothelial cells of in vitro BBB model; assay type: cell-based; details: rhodamine fluorescence after cell lysis, 2 h, 5 h, 24 h
Description: The medium is changed twice per week. […] This BBMEC medium is changed three times per week.
This analysis was carried out by lysis of endothelial cells at various times (2 h, 5 h, 24 h), and by fluorimetric measurements of the quantity of fluorescence (rhodamine) associated with the cells (membrane and cytoplasmic compartments obtained by centrifugation of these cells after lysis).

hLDLR [5] = target: T1, hLDLR; assay: Binding and endocytosis of tracer-conjugated synthesised peptides in CHO-hLDLR-GFP cells (fluorescence, immunocytochemistry); assay type: cell-based; set-up: expressed in transfected cells; details: CHO-LDLR-GFP cells, tracer-conjugated peptide, vs control peptides
From the text: GFP fluorescence is visible in green (A1, B1 and C1); that related to peptides, visualised by rhodamine or by binding of an anti-S-Tag antibody coupled to Alexa594 is visible in red (A2, B2 and C2); and the superimposing of red and green stains is visible in yellow/orange (A3, B3 and C3). […] S-Tag (a 15 amino acid peptide derived from sequence 1-15 of bovine pancreatic ribonuclease A) on the one hand can be recognised by an anti-S-Tag antibody for immunocytochemistry or FACS approaches, and on the other hand can reconstitute enzymatic activity by binding with ribonuclease S-protein (C-term portion, amino acids 21-124) in tests of activity in vitro using the FRETWorks S-Tag assay kit (Novagen 70724-3). The ribonuclease thus activated digests an RNA substrate releasing a masked fluorescent agent visualised by FRET (fluorescence resonance energy transfer) and quantified in a 96-well plate in a Beckmann spectrofluorimeter. For these FRET experiments, control CHO cells and GFP fused in the C-term position with hLDLR and mLDLR, which generates strong background noise at the wavelengths used for FRET, was replaced by red fluorescent protein (RFP). The stable cell lines generated for the FRET experiments are thus CHO-RFP and CHO-hLDLR-RFP. Experiments involving the incubation of peptides on various cells expressing hLDLR were performed.

[6] = test system: bovine brain microvascular endothelial cells (BBMEC); assay: Passage (Pe) across in vitro BBB model
Description: The potential toxic effects of peptides on endothelial cells, the binding/accumulation of peptides in these cells, and the passage by transcytosis of peptides were evaluated on in vitro BBB models. The cells necessary to set up the model (co-culture of endothelial cells from brain microvessels and astrocytes) are bovine cells (bovine brain microvascular endothelial cells, BBMEC) sold by Cellial Technologies (Lens, France).
The in vitro BBB model brings into play a co-culture of BBMECs and astrocytes. […]
The culture medium of the lower chamber is collected at various times and fluorescence quantified by fluorimetric analysis. The results are expressed as endothelial surface permeability (Pe) in units of 10^−3 cm/min. […] Transendothelial electrical resistance (TEER), measured with an ohmmeter and expressed in ohm·cm^2, also makes it possible to measure BBB integrity in vitro during tests of passage across the BBB. […]
This analysis is carried out by measuring by fluorimetry the quantity of fluorescence accumulated in the receiver wells at various times (1 h, 4 h, 24 h). The integrity of the BBB in the various wells analysed was evaluated by simultaneous measurement of the level of LY that passes from one compartment to the other as a function of time.

hLDLR [7] = target: T1, hLDLR; assay: FACS: binding of bacterial viruses expressing peptides to HUVEC; set-up: endogenous in cells; host or cells: HUVEC (human umbilical vein endothelial cells), not genetically modified
Description: Evaluation by FACS of the interaction between HUVEC and two clones of bacterial viruses expressing peptides, one cyclic (SEQ ID NO: 11), the other linear (SEQ ID NO: 21), with affinity for hLDLR, compared with control bacterial viruses not expressing peptides with affinity for this receptor.
Qualitative immunocytochemistry was supplemented with quantitative flow cytometry (FACS) with suspended cells (GFP cell line, CHO-hLDLR-GFP cell line, human fibroblasts, HUVEC). These cells were grown in culture medium, mechanically unbound and dissociated (without trypsin), centrifuged, resuspended and incubated in the presence of various bacterial virus clones and anti-LDLR antibody, for 20 min at 4° C. in order to avoid any process of endocytosis. After washings, the bacterial viruses bound to cells were visualised with anti-viral envelope protein antibody. FACS analyses were carried out with a FACSCanto system (Becton Dickinson) using BD FACSDiva software. The number of positive cells was standardised with 5,000 events for each test. The results were expressed in arbitrary units of fluorescence.
FIGS. 9, 10, 11 correspond to the results obtained for peptides SEQ ID NO: 11, SEQ ID NO: 12 and SEQ ID NO: 21 on cells of the CHO-hLDLR-GFP cell line (FIG. 9), human fibroblasts (FIG. 10) and HUVEC (FIG. 11).

hLDLR [8] = target: T1, hLDLR; assay: FACS on HUVEC: competition between peptides expressed by bacterial viruses and natural ligand LDL; assay type: binding; set-up: endogenous in cells; host or cells: HUVEC (human umbilical vein endothelial cells), not genetically modified
From the text: Evaluation by FACS on HUVEC of competition between the peptides expressed by the bacterial viruses with affinity for LDLR and its natural ligand LDL.
I—Graph representing the percentage of shift of the fluorescence signal in zone Q2 of graphs A-H obtained by FACS. […] Adding LDL leads to an 85% loss of signal in Q2 in […], indicating competition between the bacterial virus corresponding to peptide sequence SEQ ID NO: 21 and LDL at the site where LDL binds to hLDLR. The equally strong signal in Q2 of the bacterial viruses that express peptide SEQ ID NO: 11 (shift greater than 70% compared to control bacterial viruses) is only slightly shifted (17%) by adding LDL.
First, it is shown that the binding rate of bacterial viruses expressing peptides with affinity for hLDLR (SEQ ID NO: 21 and SEQ ID NO: 11 are used here as examples) is proportional to the level of LDLR expression by HUVEC. FACS experiments carried out in the presence of LDL made it possible to show and quantify a strong shift (85%) of LDL by linear peptides (for example SEQ ID NO: 21), but a small shift (17%) by cyclic peptides (for example SEQ ID NO: 11).

[9] = mouse in situ brain perfusion, BBB, 5 min, perfusate flow rate 2 ml/min, tritiated peptide

## (D)-CMPRLRGC [SEQ ID NO: 48]
[1]; mouse, in vivo
  Kin (brain transport or transfer coefficient): 4.8±0.4 ×10^−4 ml/s/g
  improvement of passage in the brain, factor vs SEQ ID NO: 11: 1.37
[2]; mouse, in vivo
  Kin across the blood-retinal barrier (BRB): 2.4±0.3 ×10^−4 ml/s/g
hLDLR [3]
  in vitro affinity for LDLR (displacement of SEQ ID NO: 11/S-Tag): excellent affinity

## CMPRC [SEQ ID NO: 73, control peptide for the brain perfusion study, reference compound]
[1]; mouse, in vivo
  Kin (brain transport or transfer coefficient): 1.5±0.2 ×10^−4 ml/s/g
[2]; mouse, in vivo
  Kin across the blood-retinal barrier (BRB): 0.0±0.0 ×10^−4 ml/s/g

## SEQ ID NO: 1 conjugated with rhodamine: peptide SEQ ID NO: 1 conjugated in the C-term position with rhodamine via a spacer of three Gly residues (HLDCMPRGCFRNGGG-Rhodamine; cysteine pairing not given here; reading uncertain)
[4]
  binding and/or internalisation rate in endothelial cells: more affinity for endothelial cells in an in vitro BBB model than the control peptide
hLDLR [5]
  binding to cells expressing hLDLR: bind well to CHO-LDLR-GFP cells
  endocytosis / intracellular accumulation: incorporated by endocytosis
hLDLR [5]; listed as SEQ ID NO: 1/rhodamine
  endocytosis / intracellular accumulation: high levels of intracellular staining
[6]; 1 h and 4 h
  rate of passage (Pe) across in vitro BBB: cannot be distinguished from nonspecific or paracellular passage
[6]; 24 h
  rate of passage (Pe) across in vitro BBB: quite significantly higher than that of the control peptide

## TPSAHAMALQSLSVG [SEQ ID NO: 21]
hLDLR [7]; peptide expressed by bacterial virus clone, vs control bacterial viruses
  shift of the signal in Q2 (FACS): significant shift
hLDLR [7]; peptide expressed by bacterial viruses, without LDL
  percentage of shift of the fluorescence signal in zone Q2: more than 55.8%
hLDLR [8]; FACS, LDL added
  effect of LDL on binding of peptides expressed by bacterial viruses: strongly decreases the binding
hLDLR [8]; peptide expressed by bacterial viruses, in the presence of LDL
  loss/shift of signal in Q2 on adding LDL: 85%

## Y-(D)-AGFLR (Y[dA]GFLR) [SEQ ID NO: 74, analgesic therapeutic peptide, dalargin, reference compound]
[1]; [9]
  Kin (brain transport or transfer coefficient): 0.9±0.1 ×10^−4 ml/s/g
[2]; mouse in situ perfusion, BRB
  Kin across the blood-retinal barrier (BRB): 1.8±0.2 ×10^−4 ml/s/g

## Y-(D)-AGFLRGFAL-(D)-CMPRLRGC (Y[dA]GFLRGFAL[dC]MPRLRGC; cysteine pairing not given here) [SEQ ID NO: 72]
[1]; [9]
  Kin (brain transport or transfer coefficient): 19.6±3.9 ×10^−4 ml/s/g
[1]; ratio of Kin, BBB
  passage in the brain, factor vs non-vectorised free dalargin (SEQ ID NO: 74): 21.78
[2]; mouse in situ perfusion, BRB
  Kin across the blood-retinal barrier (BRB): 11.5±3.3 ×10^−4 ml/s/g
[2]; ratio of Kin, BRB
  BRB crossing, factor vs non-vectorised free dalargin (SEQ ID NO: 74): 6.39
